The source of these data is US20220403048A1, “BINDING MOLECULES TO ARGINASE II [ARG2]” (Cancer Research Technology Limited, priority 2019, published 2022).

One experiment deals with T1, human ARG2 (Homo sapiens, UniProt P78540, E275H/R327K).
T1 construct: His10 (after a GGG linker) (C); made in house; host or cells: E. coli BL21 (DE3)
T1 sequence (P78540 23-354 E275H/R327K): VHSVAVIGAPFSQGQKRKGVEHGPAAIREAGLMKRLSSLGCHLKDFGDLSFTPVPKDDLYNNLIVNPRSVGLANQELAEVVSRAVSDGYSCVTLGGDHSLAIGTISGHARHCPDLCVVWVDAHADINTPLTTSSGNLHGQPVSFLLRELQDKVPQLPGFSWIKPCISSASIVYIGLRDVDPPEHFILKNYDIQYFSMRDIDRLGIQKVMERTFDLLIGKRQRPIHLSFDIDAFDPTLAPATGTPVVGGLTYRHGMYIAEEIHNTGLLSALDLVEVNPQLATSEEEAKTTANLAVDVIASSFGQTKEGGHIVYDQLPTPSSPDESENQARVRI
In words: Bio-Layer Interferometry (OctetRED) binding kinetics, human ARG2. From the text:
The OctetRED (Pall ForteBio) instrument was used to assess the kinetic parameters of the interactions between C0020187 and recombinantly produced human ARG2, cynomolgus ARG2 and human ARG1. The Octet biosensor uses an optical analytical technique that analyses the interference pattern of white light reflected from two surfaces: a layer of immobilised protein on the sensor tip, and an internal reference layer. Any changes in binding at the biosensor tip result in a shift in interference pattern, which can be measured in real time. Molecules associating with or dissociating from ligands at the biosensor tip shift the interference pattern and generate a response on the Octet system which is recorded by the acquisition software.
Typically, a defined concentration of the analyte species is brought into contact with the coupled ligand and any binding is detected as an increased in signal (association phase). This is followed by a period of buffer rinse, during which dissociation of the analyte species from the surface immobilised ligand can be observed as a decrease in signal (dissociation phase). Repetition of this with a range of analyte concentrations provides data for the analysis of binding kinetics.
An Octet Kinetics Buffer (PBS containing 0.01% BSA and 0.002% Tween20) is typically used as the diluent buffer for the analyte samples and as the flow buffer during the dissociation phase. The experimental data is recorded over time as shift in interference pattern (nm) over time, which is directly proportional to the optical thickness at the biosensor tip, which in turn is an approximate measure of the mass of analyte bound. The proprietary Octet Data Analysis software package can then be used to process data and fit binding models to the data sets. Returned association (ka, M^−1 s^−1) and dissociation (kd, s^−1) rate constants allow calculation of dissociation (KD, M) affinity constants.
(§1) The affinity of binding between the Fab of C0020187 and human ARG2, cynomolgus ARG2 and human ARG1 was estimated using assays in which the biotinylated ARG antigen was captured on a streptavidin sensor tip. A fresh sensor tip was used for each measurement and no regeneration was used. A series of dilutions of the C0020187 Fab (3.25-240 nM) were individually placed in contact with the ligand surface for a sufficient amount of time to observe sensorgrams that could be fitted to an appropriate binding model with confidence (typically 5 minutes), followed by an appropriate length of dissociation time (typically 10 minutes). Blank reference (0 nM Fab) data were subtracted from each dataset to reduce the impact of any buffer artefacts or non-specific binding effects. An appropriate binding model was then fitted simultaneously to the data from each analyte titration using the Octet Evaluation software.
Example results for C0020187 are shown in Table 9, showing the association rate constants (ka), dissociation rate constants (kd) and dissociation constants (KD). These parameters were derived from a 1:1 binding fit to the data.
The affinities of the affinity-matured antibodies to human ARG2 were measured on the OctetRED system as described in section 1.15 using the streptavidin capture method. Typically, an analyte titration range of 1.8 to 120 nM was used.
The affinities of the second-generation antibodies to human ARG2 were measured on the OctetRED system. A screening assay which stably captures His-tagged ARG2 as the ligand on an anti-His surface was utilised to screen the second-generation candidates as Fabs at an analyte range of 1.8 to 120 nM, with an association time of 5 minutes and a dissociation time of 10 minutes. Sensors were regenerated using 10 mM glycine pH 1.5 after each cycle. Based on this assay, six candidates with estimated affinities in the sub-nanomolar range were identified, and they were further profiled using an extended assay which is more suitable for antibodies of high affinities. […]

For the next experiment, the target named is T2, human ARG1 (Homo sapiens, UniProt P05089).
T2 construct: Avi tag (N); His10 (after a GGG linker) (C); made in house; host or cells: E. coli BL21 (DE3)
T2 sequence (P05089 with tags, fused parts or gaps): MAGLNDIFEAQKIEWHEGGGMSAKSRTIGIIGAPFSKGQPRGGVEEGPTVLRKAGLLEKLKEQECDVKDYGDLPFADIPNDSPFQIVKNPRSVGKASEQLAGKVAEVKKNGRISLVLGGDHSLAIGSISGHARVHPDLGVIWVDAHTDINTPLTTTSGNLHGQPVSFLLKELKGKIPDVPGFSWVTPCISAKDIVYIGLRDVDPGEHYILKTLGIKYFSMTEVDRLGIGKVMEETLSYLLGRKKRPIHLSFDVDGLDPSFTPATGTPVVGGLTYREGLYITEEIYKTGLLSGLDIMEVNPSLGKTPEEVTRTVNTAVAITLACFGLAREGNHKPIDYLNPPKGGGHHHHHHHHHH
The experiment can be described thus: Bio-Layer Interferometry (OctetRED) binding, human ARG1. As to conditions: Fab analyte up to 120 nM, screening assay on anti-His surface. The protocol: as §1
The binding of affinity-matured antibodies to human ARG1 was also tested on the OctetRED system using a screening assay which stably captures […] as the ligand on an anti-His surface. The Fabs were typically tested in an analyte range of 1.8 to 120 nM, with an association time of 5 minutes and a dissociation time of 10 minutes. Sensors were regenerated using 10 mM glycine pH 1.5 after each cycle.
Binding of the second-generation antibodies to human ARG was also tested on the OctetRED system using a screening assay which stably captures […] as the ligand on an anti-His surface. The Fabs were tested as analyte up to 120 nM, with an association time of 5 minutes and a dissociation time of 10 minutes. Sensors were regenerated using 10 mM glycine pH 1.5 after each cycle.

[1] abbreviates: second-generation Fab, extended assay: association 10 min, dissociation 40 min, 0.47 to 30 nM, streptavidin surface with bio-ARG2.
Where [2] appears, read: Fab as analyte, streptavidin capture, analyte 1.8 to 120 nM, affinity-matured antibodies.

B1: C0021144: anti-ARG2 antibody, VH SEQ ID NO: 252, VL SEQ ID NO: 257 (antibody, listed as Homo sapiens, V domains shown)
VH: EVQLLESGGGLVQPGGSLRLSCAASGFTFRYDYHVWVRQAPGKGLEWVSAISGSGGSTYYADSVKGRFTISRDNSKNTLYLQMNSLRAEDTAVYYCARLRADLGLYMDLWGRGTLVTVSS
VL: QSVLTQPPSVSAAPGQKVTVSCSGSSSNIGNHHVSWYQQLPGTAPKLLIYDTTVLSSGVPDRFSGSKSGTSATLGITGLQTGDEADYYCGTWDELTSNLVFGGGTKLTVL
modifications: C0021144
In the experiment with human ARG2 (setting [1]), B1 gave a ka of 195000 M⁻¹ s⁻¹ and a kd of 6.59e-05 s⁻¹. The “Results, binding to human ARG1 (BLI)” value in the experiment with human ARG1 is listed as “No binding observed”.

B2: C0021155: anti-ARG2 antibody, VH SEQ ID NO: 262, VL SEQ ID NO: 267 (antibody, listed as Homo sapiens, V domains shown)
VH: EVQLLESGGGLVQPGGSLRLSCEASGFTFRYDYHVWVRQAPGKGLEWVSAISGSGGSTYYADPVKGRFTISRDNSKNTLYLQMNSLRAEDTAVYYCARLRADLGLYMDLWGRGTLVTVSS
VL: RSVLTQPPSVSAAPGQKVTISCSGSSSNIGNHYVSWYQQLPGTAPKLLIYDTTVLSSGIPDRFSGSKSGTSATLGITGLQTGDEADYYCGTWDELTSNLVFGGGTRLTVL
modifications: C0021155
In the experiment with human ARG2 (setting [1]), B2 came in with a ka of 159000 M⁻¹ s⁻¹ and a kd of 5.67e-05 s⁻¹. Besides, in the experiment with human ARG1, the “Results, binding to human ARG1 (BLI)” value is recorded as “No binding observed”.

B3: C0021032 Fab (antibody, V domains shown)
VH: EVQLLESGGGLVQPGGSLRLSCAASGFTFSSYAMSWVRQAPGKGLEWVSAYGYGIGSTYYADSVKGRFTISRDNSKNTLYLQMNSLRAEDTAVYYCARLRADLGLYMDLWGRGTLVTVSS
VL: QSVLTQPPSVSAAPGQKVTISCSGSSSNIGNHYVSWYQQLPGTAPKLLIYDNSERPSGIPDRFSGSKSGTSATLGITGLQTGDEADYYCGTWDSSLSALVFGGGTKLTVL
In the experiment with human ARG2 (setting [2]), B3 had a ka of 427000 M⁻¹ s⁻¹ and a kd of 0.00228 s⁻¹.

B4: C0021097 Fab (antibody, V domains shown)
VH: EVQLLESGGGLVQPGGSLRLSCAASGFTFSSYAMSWVRQAPGKGLEWVSAISYHPGSTYYADSVKGRFTISRDNSKNTLYLQMNSLRAEDTAVYYCARLRADLGLYMDLWGRGTLVTVSS
VL: QSVLTQPPSVSAAPGQKVTISCSGSSSNIGNHYVSWYQQLPGTAPKLLIYNTFARPSGIPDRFSGSKSGTSATLGITGLQTGDEADYYCGTWDSSLSALVFGGGTKLTVL
In the experiment with human ARG2 (setting [2]), B4 registered a ka of 295000 M⁻¹ s⁻¹ and a kd of 0.00146 s⁻¹.

B5: C0021021 Fab (antibody, V domains shown)
VH: EVQLLESGGGLVQPGGSLRLSCAASGFTFSSYAMSWVRQAPGKGLEWVSSILFSPGSTYYADSVKGRFTISRDNSKNTLYLQMNSLRAEDTAVYYCARLRADLGLYMDLWGRGTLVTVSS
VL: QSVLTQPPSVSAAPGQKVTISCSGSSSNIGNHYVSWYQQLPGTAPKLLIYDNSERPSGIPDRFSGSKSGTSATLGITGLQTGDEADYYCGTWDSSLSALVFGGGTKLTVL
In the experiment with human ARG2 (setting [2]), B5 displayed a ka of 473000 M⁻¹ s⁻¹ and a kd of 0.002 s⁻¹.

B6: C0021101 Fab (antibody, V domains shown)
VH: EVQLLESGGGLVQPGGSLRLSCAASGFTFSSYAMSWVRQAPGKGPEWVSAISGFSPYYADSVKGRFTISRDNSKNTLYLQMNSLRAEDTAVYYCARLRADLGLYMDLWGRGTLVTVSS
VL: QSVLTQPPSVSAAPGQKVTISCSGSSSNIGNHYVSWYQQLPGTAPKLLIYNNRSPTSGIPDRFSGSKSGTSATLGITGLQTGDEADYYCGTWDSSLSALVFGGGTKLTVL
In the experiment with human ARG2 (setting [2]), B6 gave a ka of 314000 M⁻¹ s⁻¹ and a kd of 0.00107 s⁻¹.

B7: C0021118 Fab (antibody, V domains shown)
VH: EVQLLESGGGLVQPGGSLRLSCAASGFTFSSYAMSWVRQAPGKGLEWVSASLTNPGSTYYADSVKGRFTISRDNSKNTLYLQMNSLRAEDTAVYYCARLRADLGLYMDLWGRGTLVTVSS
VL: QSVLTQPPSVSAAPGQKVTISCSGSSSNIGNHYVSWYQQLPGTAPKLLIYDNSERPSGIPDRFSGSKSGTSATLGITGLQTGDEADYYCATYDTNLSALVFGGGTKLTVL
Regarding B7, in the experiment with human ARG2 (setting [2]), the ka worked out at 139000 M⁻¹ s⁻¹ and the kd is 0.00114 s⁻¹.

B8: C0021141 Fab (antibody, V domains shown)
VH: EVQLLESGGGLVQPGGSLRLSCAASGFTFYPDPQGWVRQAPGKGLEWVSAYGYGIGSTYYADSVKGRFTISRDNSKNTLYLQMNSLRAEDTAVYYCARLRADLGLYMDLWGRGTLVTVSS
VL: QSVLTQPPSVSAAPGQEVTISCSGSSSNIDNHYVSWYQQLPGTAPKLLIYDNSERPSGIPDRFSGSKSGTSATLGITGLQTGDEADYYCGTWDSSLSALVFGGGTKLTVL
Consider B8, for which, in the experiment with human ARG2 (setting [2]), the ka was 326000 M⁻¹ s⁻¹ and the kd was determined as 0.00108 s⁻¹.

B9: C0021096 Fab (antibody, V domains shown)
VH: EVQLLESGGGLVQPGGSLRLSCAASGFTFSSYAMSWVRQAPGKGLEWVSAISGYSGYYADSVKGRFTISRDNSKNTLYLQMNSLRAEDTAVYYCARLRADLGLYMDLWGRGTLVTVSS
VL: QSVLTQPPSVSAAPGQKVTISCSGSSSNIGNHYVSWYQQLPGTAPKLLIYNTERRMSGIPDRFSGSKSGTSATLGITGLQTGDEADYYCGTWDSSLSALVFGGGTKLTVL
For the molecule B9, in the experiment with human ARG2 (setting [2]), the ka was found to be 441000 M⁻¹ s⁻¹ and the kd was determined as 0.00154 s⁻¹.

B10: C0021142 Fab (antibody, V domains shown)
VH: EVQLLESGGGLVQPGGSLRLSCAASGFTFSSYAMSWVRQAPGKGLEWVSAHTHSPGSTYYADSVKGRFTISRDNSKNTLYLQMNSLRAEDTAVYYCARLRADLGLYMDLWGRGTLVTVSS
VL: QSVLTQPPSVSAAPGQKVTISCSGSSSNIGNHYVSWYQQLPGTAPKLLIYDNSERPSGIPDRFSGSKSGTSATLGITGLQTGDEADYYCGTWDSSLSALVFGGGTKLTVL
In the experiment with human ARG2 (setting [2]), B10 yielded a ka of 399000 M⁻¹ s⁻¹ and a kd of 0.0011 s⁻¹.
